Experimental findings from PMC3700353 are described below.

Substrate in the data set: N[C@@H](CC(=O)c1ccccc1NC=O)C(=O)O
Kind of data set: purified protein. As to conditions: 50 mM potassium phosphate pH 7.4, 22 °C, 0.02–1.00 mM NFK. In kind it is biochemical, Drosophila melanogaster.

B1: KFase (kynurenine formamidase) (Drosophila melanogaster) (protein)
chain: MYNPRCKDLDRDYFPSYHTTRFQDQPEPNLAVLEHFVRVTKQHGRELTEKQGITVDHLRYGEGRQLVDVFYSEKTTNQAPLFVFVHGGYWQEMDMSMSCSIVGPLVRRGYRVAVMDYNLCPQVTLEQLMTQFTHFLNWIFDYTEMTKVSSLTFAGHSAGAHLLAQILMRPNVITAQRSKMVWALIFLCGVYDLRELSNLESVNPKNILGLNERNIESVSPMLWEYTDVTVWNSTKIYVVAAEHDSTTFIEQSRHYADVLRKKGYKASFTLFKGYDHFDIIEETAIDDSDVSRFLRNIEIE
Regarding B1, the Km stood at 320 ± 60 µM and the kcat turned out to be 26.4 ± 4.45 s⁻¹.
